According to article PMC3367207 (Nucleic Acids Research, 2012):

Target: the molecule itself
Test: FRET or BRET

B1: FokI restriction endonuclease (enzyme, UniProt P14870 1-579, looked up)
chain: MVSKIRTFGWVQNPGKFENLKRVVQVFDRNSKVHNEVKNIKIPTLVKESKIQKELVAIMNQHDLIYTYKELVGTGTSIRSEAPCDAIIQATIADQGNKKGYIDNWSSDGFLRWAHALGFIEYINKSDSFVITDVGLAYSKSADGSAIEKEILIEAISSYPPAIRILTLLEDGQHLTKFDLGKNLGFSGESGFTSLPEGILLDTLANAMPKDKGEIRNNWEGSSDKYARMIGGWLDKLGLVKQGKKEFIIPTLGKPDNKEFISHAFKITGEGLKVLRRAKGSTKFTRVPKRVYWEMLATNLTDKEYVRTRRALILEILIKAGSLKIEQIQDNLKKLGFDEVIETIENDIKGLINTGIFIEIKGRFYQLKDHILQFVIPNRGVTKQLVKSELEEKKSELRHKLKYVPHEYIELIEIARNSTQDRILEMKVMEFFMKVYGYRGKHLGGSRKPDGAIYTVGSPIDYGVIVDTKAYSGGYNLPIGQADEMQRYVEENQTRNKHINPNEWWKVYPSSVTEFKFLFVSGHFKGNYKAQLTRLNHITNCNGAVLSVEELLIGGEMIKAGTLTLEEVRRKFNNGEINF
binding result: binds
